According to article doi:10.1101/2023.11.02.23297943 (medRxiv, 2023):
Where a chain is given by its changes, count along the chain named.

Biological target: the molecule itself
Experiment: cross-linking

B1: mitochondrial single-stranded DNA-binding protein 1 (SSBP1), wild-type recombinant protein (natural protein, human, UniProt Q04837 17-148, looked up)
chain: ESETTTSLVLERSLNRVHLLGRVGQDPVLRQVEGKNPVTIFSLATNEMWRSGDSEVYQLGDVSQKTTWHRISVFRPGLRDVAYQYVKKGSRIYLEGKIDYGEYMDKNNVRRQATTIIADNIIFLSDQTKEKE
B1: binds.

B2: SSBP1 p.Arg91Gln mutant, recombinant protein (natural protein, human, UniProt Q04837 17-148, looked up)
chain: B1 chain with R75Q
B2 was tested, and the “percent of dimers formed, compared to wild-type” value was 37.4 % of wild-type, the “percent of tetramers formed, compared to wild-type” value was 20.5 % of wild-type and the “percent of trimers formed, compared to wild-type” value was 12.7 % of wild-type.
